# Columns and labels:
# [1] = target: Spa47 (Shigella T3SS ATPase), wild-type (S. flexneri) (UniProt P0A1C1)
# [2] = target: Spa47 (Shigella T3SS ATPase), wild-type (S. flexneri) (UniProt P0A1C1); remark: listed apart in the source
substance,measurement,setting,value
"Spa47 (Shigella T3SS ATPase), wild-type (from UniProt P0A1C1 1-430) (enzyme)",ATP hydrolysis rate (normalized for enzyme concentration) of monomeric Spa47 as a function of enzyme concentration,[1],3 fold
same,ATPase activity of the Spa47 oligomer formed in vitro by concentrating the monomer to ~200 μM ((μmol ADP/min) /mg Spa47),[2],1.5
same,ATPase activity of the isolated monomeric Spa47 before its conversion to oligomer ((μmol ADP/min) /mg Spa47),[2],0.11
